As a reminder, the Kd is the concentration at which binding is half-saturated.

Data on three molecules can be found in paper PMC11648230, “Structure–function analysis of tRNA t6A-catalysis, assembly, and thermostability of Aquifex aeolicus TsaD2B2 tetramer in complex with TsaE”.

One data set addresses AaTsaD;AaTsaBmut (Aquifex aeolicus;Aquifex aeolicus, UniProt O66986;O66494 1-335;1-200+=WEKKKRG, |internal_change). Briefly: EMSA; TsaD2Bmut2 tetramer; EMSA: 1 uM 6-FAM-tRNA, 0-100 uM protein, 2% agarose, 20 mM Tris-HCl/50 mM glycine pH 8.5 running buffer (loading buffer for native gels 20 mM Tris-HCl pH 7.5, 300 mM NaCl, 25% glycerol); MST: 10 nM tRNA, 20 mM PBS pH 7.5, 300 mM NaCl, 0.05% Tween 20, 25 C. As to conditions: protein: recombinant;recombinant; tags: ;C-terminal 6His; chain copies: 2;2; label: 5' 6-FAM; tRNA cloverleaf. (Mobility shift assays separate free from complexed probe on a gel.)

Another data set addresses AaTsaD;AaTsaB (Aquifex aeolicus;Aquifex aeolicus, UniProt O66986;O66494 1-335;1-200, |). Description: MST; not saturated at 100 uM; stronger than AaTsaDB; EMSA: 1 uM 6-FAM-tRNA, 0-100 uM protein, 2% agarose, 20 mM Tris-HCl/50 mM glycine pH 8.5 running buffer (loading buffer for native gels 20 mM Tris-HCl pH 7.5, 300 mM NaCl, 25% glycerol); MST: 10 nM tRNA, 20 mM PBS pH 7.5, 300 mM NaCl, 0.05% Tween 20, 25 C. Conditions: protein: recombinant;recombinant; tags: ;C-terminal 6His; chain copies: 2;2; label: 5' 6-FAM; tRNA cloverleaf.

A further data set addresses AaTsaD del34-38;AaTsaB (Aquifex aeolicus;Aquifex aeolicus, UniProt O66986;O66494 1-335;1-200, del34-38|). Description: EMSA; tighter than TsaD2B2; EMSA: 1 uM 6-FAM-tRNA, 0-100 uM protein, 2% agarose, 20 mM Tris-HCl/50 mM glycine pH 8.5 running buffer (loading buffer for native gels 20 mM Tris-HCl pH 7.5, 300 mM NaCl, 25% glycerol); MST: 10 nM tRNA, 20 mM PBS pH 7.5, 300 mM NaCl, 0.05% Tween 20, 25 C. Conditions: protein: recombinant;recombinant; tags: ;C-terminal 6His; chain copies: 2;2; label: 5' 6-FAM; tRNA cloverleaf.

The next data set has as its target EcTsaD;EcTsaB (Escherichia coli;Escherichia coli, UniProt P05852;P76256 1-337;1-231, |). Description: EMSA; TsaDB dimer; EMSA: 1 uM 6-FAM-tRNA, 0-100 uM protein, 2% agarose, 20 mM Tris-HCl/50 mM glycine pH 8.5 running buffer (loading buffer for native gels 20 mM Tris-HCl pH 7.5, 300 mM NaCl, 25% glycerol); MST: 10 nM tRNA, 20 mM PBS pH 7.5, 300 mM NaCl, 0.05% Tween 20, 25 C. Conditions: protein: recombinant;recombinant; tags: ;; copies: 1;1; tRNA cloverleaf.

The target in another data set is TmTsaD;TmTsaB (Thermotoga maritima;Thermotoga maritima, UniProt Q9WXZ2;Q9WZX7 1-327;1-206, |). Briefly: EMSA; TsaD2B2 tetramer; EMSA: 1 uM 6-FAM-tRNA, 0-100 uM protein, 2% agarose, 20 mM Tris-HCl/50 mM glycine pH 8.5 running buffer (loading buffer for native gels 20 mM Tris-HCl pH 7.5, 300 mM NaCl, 25% glycerol); MST: 10 nM tRNA, 20 mM PBS pH 7.5, 300 mM NaCl, 0.05% Tween 20, 25 C. Conditions: protein: recombinant;recombinant; tags: ;; chain copies: 2;2; label: 5' 6-FAM; tRNA cloverleaf.

Data set [1] concerns the target TmTsaD;TmTsaB dimer-interface mutant (Thermotoga maritima;Thermotoga maritima, UniProt Q9WXZ2;Q9WZX7 1-327;1-206, |E20A;D21A;L22A;E24A;S26A;Y27A;T28A;E30A;K31A). Description: EMSA; TsaDB dimer; EMSA: 1 uM 6-FAM-tRNA, 0-100 uM protein, 2% agarose, 20 mM Tris-HCl/50 mM glycine pH 8.5 running buffer (loading buffer for native gels 20 mM Tris-HCl pH 7.5, 300 mM NaCl, 25% glycerol); MST: 10 nM tRNA, 20 mM PBS pH 7.5, 300 mM NaCl, 0.05% Tween 20, 25 C. As to conditions: protein: recombinant;recombinant; tags: ;; copies: 1;1; label: 5' 6-FAM; tRNA cloverleaf.

AaTsaD del34-38;AaTsaB, sequence (O66986 other isoform, or with tags, fused parts or gaps del34-38|, chain 1 of 2): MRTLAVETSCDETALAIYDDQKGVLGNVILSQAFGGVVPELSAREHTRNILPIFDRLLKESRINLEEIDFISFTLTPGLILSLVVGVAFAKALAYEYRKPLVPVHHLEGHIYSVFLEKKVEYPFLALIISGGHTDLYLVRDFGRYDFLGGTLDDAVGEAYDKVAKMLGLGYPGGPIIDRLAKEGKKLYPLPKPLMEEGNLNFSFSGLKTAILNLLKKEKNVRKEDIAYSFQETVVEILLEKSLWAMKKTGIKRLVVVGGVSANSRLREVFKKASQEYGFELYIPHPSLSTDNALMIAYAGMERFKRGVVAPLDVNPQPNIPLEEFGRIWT
AaTsaD del34-38;AaTsaB, sequence (chain, as listed by the source del34-38|, chain 2 of 2): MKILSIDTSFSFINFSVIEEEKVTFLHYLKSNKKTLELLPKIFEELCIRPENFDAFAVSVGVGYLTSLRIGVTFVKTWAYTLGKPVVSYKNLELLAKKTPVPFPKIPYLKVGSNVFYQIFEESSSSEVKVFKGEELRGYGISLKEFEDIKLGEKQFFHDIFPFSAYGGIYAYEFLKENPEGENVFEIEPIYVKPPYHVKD
EcTsaD;EcTsaB, sequence (P05852 whole entry, chain 1 of 2): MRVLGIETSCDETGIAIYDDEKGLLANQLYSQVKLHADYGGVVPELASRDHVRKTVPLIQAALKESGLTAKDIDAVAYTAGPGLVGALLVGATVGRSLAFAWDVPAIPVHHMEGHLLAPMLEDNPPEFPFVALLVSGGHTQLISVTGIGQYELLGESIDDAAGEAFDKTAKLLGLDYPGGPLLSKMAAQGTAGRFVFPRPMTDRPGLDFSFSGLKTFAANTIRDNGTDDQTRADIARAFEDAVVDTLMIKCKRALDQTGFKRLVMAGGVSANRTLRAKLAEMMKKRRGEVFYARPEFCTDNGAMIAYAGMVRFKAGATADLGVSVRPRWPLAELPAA
EcTsaD;EcTsaB, sequence (P76256 whole entry, chain 2 of 2): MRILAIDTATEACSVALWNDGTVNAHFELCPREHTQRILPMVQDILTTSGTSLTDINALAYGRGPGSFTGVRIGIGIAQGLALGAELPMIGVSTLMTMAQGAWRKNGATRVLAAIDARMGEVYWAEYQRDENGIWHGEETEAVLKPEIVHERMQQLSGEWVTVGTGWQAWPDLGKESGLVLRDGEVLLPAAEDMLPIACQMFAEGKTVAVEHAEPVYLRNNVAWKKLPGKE
TmTsaD;TmTsaB dimer-interface mutant, sequence (Q9WXZ2 whole entry, stated change not applied, chain 1 of 2): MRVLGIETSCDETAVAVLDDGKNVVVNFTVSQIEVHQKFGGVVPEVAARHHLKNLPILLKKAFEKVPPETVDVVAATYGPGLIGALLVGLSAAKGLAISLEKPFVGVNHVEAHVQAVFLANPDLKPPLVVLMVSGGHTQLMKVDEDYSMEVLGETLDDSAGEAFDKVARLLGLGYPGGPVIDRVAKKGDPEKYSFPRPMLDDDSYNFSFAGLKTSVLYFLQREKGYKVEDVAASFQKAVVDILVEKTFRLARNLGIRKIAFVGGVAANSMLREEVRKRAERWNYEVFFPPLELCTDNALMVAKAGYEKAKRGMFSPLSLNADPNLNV
TmTsaD;TmTsaB dimer-interface mutant, sequence (Q9WZX7 whole entry E20A/D21A/L22A/E24A/S26A/Y27A/T28A/E30A/K31A, chain 2 of 2): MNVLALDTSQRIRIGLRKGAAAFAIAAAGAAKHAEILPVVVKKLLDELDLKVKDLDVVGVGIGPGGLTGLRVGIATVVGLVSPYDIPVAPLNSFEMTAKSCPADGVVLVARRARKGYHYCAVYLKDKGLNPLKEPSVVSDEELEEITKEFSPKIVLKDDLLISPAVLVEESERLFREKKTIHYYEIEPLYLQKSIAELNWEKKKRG
TmTsaD;TmTsaB, sequence (Q9WXZ2 whole entry, chain 1 of 2): as the sequence (Q9WXZ2 whole entry, stated change not applied, chain 1 of 2) above
TmTsaD;TmTsaB, sequence (Q9WZX7 whole entry, chain 2 of 2): as the sequence (Q9WZX7 whole entry E20A/D21A/L22A/E24A/S26A/Y27A/T28A/E30A/K31A, chain 2 of 2) above, with A20E, A21D, A22L, A24E, A26S, A27Y, A28T, A30E, A31K counted along it
AaTsaD;AaTsaB, sequence (O66986 whole entry, chain 1 of 2): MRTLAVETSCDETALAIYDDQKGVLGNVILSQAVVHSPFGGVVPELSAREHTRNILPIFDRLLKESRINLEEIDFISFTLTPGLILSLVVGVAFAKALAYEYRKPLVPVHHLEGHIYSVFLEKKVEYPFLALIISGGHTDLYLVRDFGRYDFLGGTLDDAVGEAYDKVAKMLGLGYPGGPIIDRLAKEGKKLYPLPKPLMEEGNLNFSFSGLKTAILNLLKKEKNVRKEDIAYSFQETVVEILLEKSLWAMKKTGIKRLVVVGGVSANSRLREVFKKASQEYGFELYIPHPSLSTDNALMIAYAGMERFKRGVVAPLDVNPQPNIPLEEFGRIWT
AaTsaD;AaTsaB, sequence (chain, as listed by the source |, chain 2 of 2): as the sequence (chain, as listed by the source del34-38|, chain 2 of 2) above
AaTsaD;AaTsaBmut, sequence (O66986 whole entry, change not shown, chain 1 of 2): as the sequence (O66986 whole entry, chain 1 of 2) above
AaTsaD;AaTsaBmut, sequence (chain, as listed by the source |, chain 2 of 2): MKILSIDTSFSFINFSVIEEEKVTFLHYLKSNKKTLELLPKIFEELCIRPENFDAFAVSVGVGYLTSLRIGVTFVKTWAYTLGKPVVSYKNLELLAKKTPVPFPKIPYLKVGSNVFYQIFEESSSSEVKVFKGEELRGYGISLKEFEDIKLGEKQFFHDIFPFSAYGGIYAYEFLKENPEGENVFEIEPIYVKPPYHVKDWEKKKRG

B1: A. aeolicus tRNALysUUU (structured_RNA)
RNA: GAGCCGGUAGCUCAGUUGGUAGAGCAACGGCCUUUUAAGCCGUGGGUCGCGGGUUCGAGUCCCGCCCGGCUCACCA
Regarding B1, in the data set with AaTsaD;AaTsaBmut, the Kd is about 1160 nM. Moreover, the binding result with AaTsaD;AaTsaB and with AaTsaD del34-38;AaTsaB was “binds” each time.

B2: E. coli tRNALysUUU (structured_RNA)
RNA: GGGUCGUUAGCUCAGUUGGUAGAGCAGUUGACUUUUAAUCAAUUGGUCGCAGGUUCGAAUCCUGCACGACCCACCA
In the case of B2, the binding result with EcTsaD;EcTsaB is given as “no binding”.

B3: T. maritima tRNALysUUU (structured_RNA)
RNA: GACCCGGUAGCUCAGCAGGCAGAGCACCUGACUUUUAAUCAGGGGGUCGUGGGUUCGAAUCCCACCCGGGUCACCA
On to B3, for which the Kd with TmTsaD;TmTsaB turned out to be 1200 nM; in data set [1] it was 1720 nM.
